Laboratory results as given in article PMC9088798, “An Approach to Derive Functional Peptide Inhibitors of Transcription Factor Activity”.
Where a chain is given by its changes, count along the chain named.

How the values were obtained:
[1] = target: T1, A-FosW (designed); assay: CD (281 nm DNA peak); 50 uM A-FosW, 5 uM DNA; EMSA: 150 mM KCl, 1 mM DTT, 1 mM EDTA, 10 mM Tris, 10 mM MgCl2, pH 8, 4 C, 30 min; CD: buffer with TCEP, pH 7.4, 30 min (rest not in material); details: protein: recombinant; tags: N-terminal MAS, C-terminal GAP-His6; blunt
T1 chain: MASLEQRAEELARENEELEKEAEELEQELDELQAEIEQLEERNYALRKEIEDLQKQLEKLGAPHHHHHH

[2] = target: T2, HingeW (designed); assay: CD (281 nm DNA peak); EMSA: 150 mM KCl, 1 mM DTT, 1 mM EDTA, 10 mM Tris, 10 mM MgCl2, pH 8, 4 C, 30 min; CD: buffer with TCEP, pH 7.4, 30 min (rest not in material); details: protein: recombinant; tags: N-terminal MAS, C-terminal GAP-His6; blunt
T2 chain: T1 chain with E26V, Q27V, L29E, E31V, Q33E, A34E

[3] = target: cJun bZIP (human, UniProt P05412); assay: CD (281 nm DNA peak); 20 uM cJun, 5 uM DNA; DNA peak decreases by 55%; EMSA: 150 mM KCl, 1 mM DTT, 1 mM EDTA, 10 mM Tris, 10 mM MgCl2, pH 8, 4 C, 30 min; CD: buffer with TCEP, pH 7.4, 30 min (rest not in material); details: protein: recombinant; tags: C-terminal GAP; His-SUMO cleaved off; chain copies: 2; blunt
Sequence of cJun bZIP (P05412 other isoform, or with tags, fused parts or gaps): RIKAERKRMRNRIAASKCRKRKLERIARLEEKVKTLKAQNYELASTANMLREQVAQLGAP

B1: TRE DNA (dsDNA)
DNA 1: GTCAGTCAGTGACTCAATCGGTCA
DNA 2: TGACCGATTGAGTCACTGACTGAC
B1: no binding [1]; no binding [2]; binds [3].
